Measured values: patent publication US20220411514A1 (TRUEBINDING, published 2022)

Legend:
human Galectin-3 (Gal3) [1] = target: T1, human Galectin-3 (Gal3) (human, UniProt P17931 2-250, limits assumed); experiment: SPR Biacore T200, antibody captured, Gal3 analyte, 1:1 fit
T1 construct: also called hGal3; hGAL3

[2] = target: T2, Human Galectin-3 protein (Acro Biosystems, GA3-H5129) (human, UniProt P17931 2-250); experiment: ELISA, INSR binding to coated Gal3 with 3 ug/mL antibody
T2 construct: bought; also called Gal3-ECD-His; Gal3-His; not shown: linker-spaced 6-histidine tag

[3] = target: T2, Human Galectin-3 protein (Acro …); experiment: SPR sandwich binning, Carterra LSA
Peptide 5 of Gal3 = target: T3, Peptide 5 of Gal3 (human); experiment: peptide ELISA, antibody as hIgG4(S228P) at 5 ug/mL
T3 peptide: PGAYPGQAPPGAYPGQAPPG

Peptide 6 of Gal3 = target: T4, Peptide 6 of Gal3 (human); experiment: peptide ELISA, antibody as hIgG4(S228P) at 5 ug/mL
T4 peptide: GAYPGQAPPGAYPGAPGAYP

human Galectin-3 (Gal3) [4] = target: T1, human Galectin-3 (Gal3); experiment: SPR Carterra LSA, antibody captured on Protein A/G, Gal3 analyte
mouse Gal3 [5] = target: T5, mouse Gal3 (mouse, UniProt P16110 2-264, limits assumed); experiment: as above
human Galectin-3 (Gal3) [6] = target: T1, human Galectin-3 (Gal3); experiment: SPR Carterra LSA, protocol of Example 9
mouse Gal3 [7] = target: T5, mouse Gal3; experiment: SPR Carterra LSA, protocol of Example 9
[8] = target: T6, His-enterokinase cleavage site (EK)-cynoGal3 (TrueBinding in-house antigen) (cynomolgus, UniProt A0A7N9CYL1 6-247); experiment: SPR Biacore T200, antibody captured, 1:1 fit
T6 construct: also called His-EK-cynoGal3; cynomolgus Gal3; not shown: His tag and enterokinase cleavage site

[9] = target: T6, His-enterokinase cleavage site …; experiment: SPR Biacore T200, protocol of Example 9
His-EK-ratGal3 = target: T7, His-EK-ratGal3 (rat, UniProt P08699 2-262); experiment: SPR Biacore T200, antibody captured by anti-human Fc, 1:1 fit
T7 construct: not shown: His tag and enterokinase cleavage site
T7 sequence (looked up): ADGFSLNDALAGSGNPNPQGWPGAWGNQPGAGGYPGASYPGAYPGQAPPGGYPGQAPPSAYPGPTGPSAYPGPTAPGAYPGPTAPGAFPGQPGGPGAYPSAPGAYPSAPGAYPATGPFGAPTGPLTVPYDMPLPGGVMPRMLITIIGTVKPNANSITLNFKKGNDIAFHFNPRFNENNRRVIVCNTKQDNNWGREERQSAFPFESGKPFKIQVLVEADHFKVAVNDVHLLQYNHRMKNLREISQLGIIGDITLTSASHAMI

human Galectin-3 (Gal3) [10] = target: T1, human Galectin-3 (Gal3); experiment: HDX-MS

T1 sequence (P17931 2-250 limits assumed): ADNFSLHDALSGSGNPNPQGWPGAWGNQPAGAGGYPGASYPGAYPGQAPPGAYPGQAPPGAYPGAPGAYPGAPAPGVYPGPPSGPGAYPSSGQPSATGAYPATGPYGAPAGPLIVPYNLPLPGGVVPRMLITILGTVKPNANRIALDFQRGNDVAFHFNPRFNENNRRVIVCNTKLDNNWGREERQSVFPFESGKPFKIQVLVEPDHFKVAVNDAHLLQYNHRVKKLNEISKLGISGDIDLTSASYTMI
T2 sequence (P17931 2-250): as the sequence (P17931 2-250 limits assumed) above
T6 sequence (A0A7N9CYL1 entry or part of it): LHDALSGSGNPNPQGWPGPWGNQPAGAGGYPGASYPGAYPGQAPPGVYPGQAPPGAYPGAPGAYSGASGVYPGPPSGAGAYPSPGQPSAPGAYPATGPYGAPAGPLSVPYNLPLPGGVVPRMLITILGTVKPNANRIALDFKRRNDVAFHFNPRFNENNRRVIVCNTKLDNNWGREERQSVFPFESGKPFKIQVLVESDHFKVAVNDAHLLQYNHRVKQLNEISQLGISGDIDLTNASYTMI
T5 sequence (P16110 2-264 limits assumed): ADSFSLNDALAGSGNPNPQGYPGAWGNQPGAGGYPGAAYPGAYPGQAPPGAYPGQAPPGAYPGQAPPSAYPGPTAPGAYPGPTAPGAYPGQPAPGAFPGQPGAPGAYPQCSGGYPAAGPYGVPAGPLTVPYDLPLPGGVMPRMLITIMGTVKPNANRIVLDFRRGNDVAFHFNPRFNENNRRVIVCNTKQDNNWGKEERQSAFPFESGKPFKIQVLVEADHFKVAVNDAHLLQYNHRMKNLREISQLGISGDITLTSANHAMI

B1: 12G5.D7 (antibody, V domains shown)
VH: QVQLKQSGAELVRPGASVKLSCKASGYTFTDYYINWVKQRPGQGLEWIARIYPGTGNTDYNEKFKGRATLTAEKSSSTAYMQLSSLTSEDSAVYFCARFAYYYGSGGYFDYWGHGTTLTVSS
VL: DILMTQSPSSMSVSLGDTVSITCHASQGINSNMGWLQQKPGKSFKGLIYHATNLEDGVPSRFSGSGSGADYSLTISSLESEDFADYYCVQYAQFPPTFGSGTKLEIK
How did the Kd (human Galectin-3 (Gal3) [1]) turn out when B1 was run?
Its Kd is 1.9 nM.

What about the “inhibition of Gal3-INSR binding, %” value [2] of the same binder?
The value was at most 30%.

B2: F847C.21H6 (antibody, V domains shown)
VH: QIQLVQSGPELKKPGETVKISCKASGYTFTIFGMNWVKQAPGKGLKWMGWVNTYTGEPTYADDFKGRFAFSLETSASTAYLQINNLKNEDTATYFCARGWFAYWGQGTLVTVSA
VL: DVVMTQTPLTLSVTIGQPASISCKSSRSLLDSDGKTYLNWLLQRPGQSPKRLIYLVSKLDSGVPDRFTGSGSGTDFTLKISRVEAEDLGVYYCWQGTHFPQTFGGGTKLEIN
Does B2 bind [3]?
Result: binds

Does B2 bind (Peptide 5 of Gal3)?
Result: binds

Does B2 bind (Peptide 6 of Gal3)?
Result: binds

B3: TB001 (antibody, V domains shown)
VH: QVQLVQSGSELKKPGASVKVSCKASGYTFTNYGMNWVRQAPGQGLKWMGWINTNTGEPTYVEEFTGRFVFSLETSVSTAYLQISSLKAEDTAVYFCAPYDNFFAYWGQGTTVTVSS
VL: DIVLTQSPLSLPVTPGEPASISCRSSKSLLYKDGKTYLNWFLQKPGQSPQLLIYLMSTHASGVPDRFSGSGSGTDFTLKISRVEAEDVGVYYCQQLVDYPLTFGGGTKLEIKR
B3 was tested. Which Kd (human Galectin-3 (Gal3) [4]) did it give?
The Kd was 3.6 nM.

What about the Kd (mouse Gal3 [5]) of the same binder?
The Kd was 2.3 nM.

And the Kd (human Galectin-3 (Gal3) [6])?
The Kd was 9.7 nM.

What about the Kd (mouse Gal3 [7]) of the same binder?
Its Kd is 4.2 nM.

What about the Kd [8] of the same binder?
The Kd was 8.9 nM.

And the Kd [9]?
Its Kd is 34 nM.

And the Kd (His-EK-ratGal3)?
Its Kd is 14 nM.

B4: 15G7.2A7 (antibody, V domains shown)
VH: EVQLQQSGPELVKPGASVKISCKASGYTFTDYYMNWVKQSHGKSLEWIGDINPNNGGTNYNQKFKGKATLTVDKSSSTAYMELRSLTSEDSAVYYCTSGYGFPYWGQGTLVTVSA
VL: DIQMNQSPSSLSASLGDTISITCRASQNINIWLSWYQQKPGNIPQLLIYKASNLHTGVPSRFSGSGSGTDFTLTISSLQPEDIATYYCLQGQSYPLTFGAGTKLVMKR
Which Kd (human Galectin-3 (Gal3) [1]) does the source give for B4 here?
The Kd was 27.8 nM.

What about the “inhibition of Gal3-INSR binding, %” value [2] of the same binder?
The value was over 99%.

B5: 19B5.2E6 (antibody, V domains shown)
VH: QIQLVQSGPELKKPGETVKISCKASGYTFTTYAMSWVKQAPGKGLKWMGWINTYSGVPTYADDLKGRFAFSLETSASTAYLQINNLKNEDTATYFCARGPYAMDYWGQGTSVTVSS
VL: DIQMTQTTSSLSASLGDRVTISCSASQGINNYLNWYQQKPDGTVKLLIYYASSLHSGVPSRFSGSGSGTDYSLTISNLEPEDIATYYCQQYSQVPYTFGSGTKLEIKR
B5 was tested. Which “Gal3-INSR binding left, % of unblocked sample” value (shortened to “Gal3-INSR binding left, %”) [2] did it give?
The value was under 5%.

B6: 23H9.2E4 (antibody, V domains shown)
VH: QIQLVQSGPELKKPGETVKISCKASGYTFTTYAMSWVKQAPGKGLKWMGWINTYSGVPTYADDLKGRFAFSLETSASTAYLQINNLKNEDTATYFCARGPYAMDYWGQGTSVTVSS
VL: DIQMTQTTSSLSASLGDRVTISCSASQGINNYLNWYQQKPDGTVKLLIYYASSLHSGVPSRFSGSGSGTDYSLTISNLEPEDIATYYCQQYSQVPYTFGSGTKLEIK
For B6, which “Gal3-INSR binding left, %” value [2] is on record?
The value was under 5%.

B7: 13G4.2F8 (antibody, V domains shown)
VH: QVQLQQPGAELVKPGASVKLSCKASGYTFTSYWMHWVKQRPGQGLEWIGMIHPNSGSTDYNEKFKNKATLNVDKSSSTAYIQLSSLTSEDSAVYYCTRWGIYYYARDYWGQGTTLTVSS
VL: DIVMTQSQKFMSTSVGERVSITCKASQNVGTNVAWYQQKAGQSLELLIYGASNRHTGVPDRFTGSGSGTDFTLTITNVQSEDMTNYFCEQYSNFPLTFGAGTKLELKR
For B7, which Kd (human Galectin-3 (Gal3) [1]) is on record?
Its Kd is 18.4 nM.

And the “inhibition of Gal3-INSR binding, %” value [2]?
The value was at most 30%.

B8: TB006 (antibody, V domains shown)
VH: QVQLVQSGAEVKKPGASVKVSCKASGYSFTNYYMHWVRQAPGQRLEWMGWIYPGSGNTNYNEKFQGRVTITADTSASTAYMELSSLRSEDTAVYYCSTAPGGFDVWGQGTTVTVSS
VL: DIVMTQTPLSLSVTPGQPASISCKSSKSLLHSDGITYLYWYLQKPGQSPQLLIYRMSNLASGVPDRFSGSGSGTDFTLKISRVEAEDVGVYYCAQMLEFPLTFGQGTKLEIKR
Which Kd (human Galectin-3 (Gal3) [4]) does the source give for B8 here?
Its Kd is 8.9 nM.

And the Kd (mouse Gal3 [5])?
The Kd was 40000 nM.

And the Kd (human Galectin-3 (Gal3) [6])?
Its Kd is 23 nM.

And the Kd [8]?
The Kd was 5.1 nM.

And the Kd [9]?
Its Kd is 9.4 nM.

B9: 24D12.2H9 (antibody, V domains shown)
VH: QVQLKQSGPGLVQPSQSLSITCTVSGFSLTSYGVHWVRQAPGKGLEWLGVIWSGGSTDYNAAFMSRLSISKDNSKSQVFFKMNSLQADDTAIYYCAKSPDGYDVAWFGYWGQGTLVTVSA
VL: DIVMTQSHKFMSTSVGDRVSITCKASQDVRTAVAWYQQKPGQSPKLLIYWASTRHTGVPDRFTGSGSGTDFTLTLSNVQSEDLADYFCQQYSSYPWTFGGGTKLEIKR
B9 was tested. Which Kd (human Galectin-3 (Gal3) [1]) did it give?
The Kd was 4.13 nM.

What about the “inhibition of Gal3-INSR binding, %” value [2] of the same binder?
Its value is at most 30%.

B10: 9H2.2H10 (antibody, V domains shown)
VH: QVQLQQPGAELVGPGSSVKLSCKASGYTFTNYWIHWVKQRPLQGLEWIGNIDPSDSETHYNQKFKDKATLTVDKSSSTAYMQLSSLTSEDSAVYYCARHGYYDYWGQGTTLTVSS
VL: DIVMTQSHKFMSTSVGDRVSITCKASQDVSTAVAWYQQKPGQSPKLLIYWASTRHTGVPDRFTGSGSGTDYTLTISSVQAEDLALYYCQQHYTTPLTFGAGTKLELKR
Which results are given for B10?
Kd (human Galectin-3 (Gal3) [1]): 2.53 nM; inhibition of Gal3-INSR binding, % [2]: ≤ 30%

B11: Arg 228-Val 292 truncated form of GLUT4 (other)
chain: RYLYIIQNLEGPARKSLKRLTGWADVSGVLAELKDEKRKLERERPLSLLQLLGSRTHRQPLIIAV
Does B11 bind (human Galectin-3 (Gal3) [10])?
Result: binds

B12: 3B11.2G2 (antibody, V domains shown)
VH: QIQLVQSGPELKKPGETVKISCKTSGYKFKTYVMSWVKQAPGKALKWMGWINTYSGVPTYADDFKGRFAFSLETSASTAYLEIINLKNEDTATYFCARDGNYGDPMDYWGQGTSVTVSS
VL: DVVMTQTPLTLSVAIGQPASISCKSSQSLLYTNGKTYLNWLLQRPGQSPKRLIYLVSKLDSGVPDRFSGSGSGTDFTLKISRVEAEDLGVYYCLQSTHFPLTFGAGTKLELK
B12 was tested. Which “Gal3-INSR binding left, %” value [2] did it give?
Its value is under 5%.
